For six substances, Kd, δ(Δε): decrease of the RNA CD signal and binding signal (fold decrease of CII') results are on record in paper PMC3726423.

In one data set the test system is aCBF5. Description: EMSA. Conditions: EMSA: 150 mM KCl, 1.5 mM MgCl2, 0.2 mM EDTA, 20 mM HEPES pH 7.9, 65 C 10 min, 50 fmol sRNA, 200 nM proteins (Kd: 50-400 nM aCBF5); fluorescence: 300 mM NaCl ….
Data set [1] deals with aNOP10 Y41A/Y44A (P. abyssi) (UniProt Q9V0E3).
The target of a further data set is aNOP10 (P. abyssi) (UniProt Q9V0E3).
The target of data set [2] is aCBF5;aNOP10 Y41A/Y44A (Y);L7Ae (Pyrococcus abyssi;Pyrococcus abyssi) (UniProt P62008). Description: EMSA. Conditions: radiolabeled substrate, excess unlabeled sRNP; EMSA: 150 mM KCl, 1.5 mM MgCl2, 0.2 mM EDTA, 20 mM HEPES pH 7.9, 65 C 10 min, 50 fmol sRNA, 200 nM proteins (Kd: 50-400 nM aCBF5); fluorescence: 300 mM NaCl ….
The target of data set [3] is aCBF5;aNOP10;L7Ae H70A/L74A/E77A (HLE) H65A;L69A;E72A (Pyrococcus abyssi;Pyrococcus abyssi) (UniProt P62008). The experiment in a line: EMSA. To be noted: radiolabeled substrate, excess unlabeled sRNP; EMSA: 150 mM KCl, 1.5 mM MgCl2, 0.2 mM EDTA, 20 mM HEPES pH 7.9, 65 C 10 min, 50 fmol sRNA, 200 nM proteins (Kd: 50-400 nM aCBF5); fluorescence: 300 mM NaCl ….

Chain of aNOP10 (P. abyssi) (Q9V0E3 whole entry): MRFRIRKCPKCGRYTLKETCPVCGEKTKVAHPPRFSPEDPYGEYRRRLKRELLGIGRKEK
Chain of aNOP10 Y41A/Y44A (P. abyssi) (Q9V0E3 whole entry Y41A/Y44A): as the sequence (Q9V0E3 whole entry) above, with Y41A, Y44A counted along it

On to “GGGGAUCCCCUCCCCUCCCGCCCUCUCCGGGGAAUCGUGAACCGGGGGUUCCGGGGGAGGGGACAGU [Pab21P191 chimera]”, for which the Kd with aCBF5 amounted to 200 nM.
In turn, “GGGGAUGGGCCCGGCUCCCGCCCUCUCCGGGGAAUCGUGAACCGGGGGUUCCGGCCGGGCCUACAGU [Pab21 H/ACA sRNA]” displayed a Kd in the data set with aCBF5 of 125 nM.
With “GGGUAAUGGGGCCCGGCUCUCACACCUCCGGGAUCAGUGACCGGAGGGCGGUCGCCGGGCCUACACCU [Pab91P121 chimera]”, in the data set with aCBF5, the equilibrium dissociation constant (Kd) stood at 200 nM.
On to “L7Ae (from UniProt P62008 1-123) (natural protein)”, for which the δ(Δε): decrease of the RNA CD signal at λmax on addition of wild-type L7Ae to the aCBF5-aNOP10(Y41A/Y44A)-Pab21 complex (M^−1.cm^−1 per nt) in data set [1] is -0.82. Also, the δ(Δε): decrease of the RNA CD signal at λmax on addition of L7Ae to the aCBF5-aNOP10-Pab21 complex (M^−1.cm^−1 per nt) with aNOP10 (P. abyssi) was -1.21.
“L7Ae triple mutant H70A/L74A/E77A (from UniProt P62008 1-123) (natural protein)”: the δ(Δε): decrease of the RNA CD signal at λmax on addition of L7Ae H70A/L74A/E77A to the wild-type aCBF5-aNOP10-Pab21 complex (M^−1.cm^−1 per nt) with aNOP10 (P. abyssi) was -0.825.
Regarding Pab21 guide + substrate RNA, the binding signal (fold decrease of CII') in data set [2] and in data set [3] was 2 in each case.
